Data: patent US20240228572A1, “LONG ACTING GLUCAGON RECEPTOR SELECTIVE PEPTIDES AND METHODS OF USE” (i2o Therapeutics, Inc., priority 2020, published 2024)

Biological target: hGIPR (human) (UniProt P48546)
Test: cell-based or functional assay

hGIPR (human), sequence (P48546 22-466): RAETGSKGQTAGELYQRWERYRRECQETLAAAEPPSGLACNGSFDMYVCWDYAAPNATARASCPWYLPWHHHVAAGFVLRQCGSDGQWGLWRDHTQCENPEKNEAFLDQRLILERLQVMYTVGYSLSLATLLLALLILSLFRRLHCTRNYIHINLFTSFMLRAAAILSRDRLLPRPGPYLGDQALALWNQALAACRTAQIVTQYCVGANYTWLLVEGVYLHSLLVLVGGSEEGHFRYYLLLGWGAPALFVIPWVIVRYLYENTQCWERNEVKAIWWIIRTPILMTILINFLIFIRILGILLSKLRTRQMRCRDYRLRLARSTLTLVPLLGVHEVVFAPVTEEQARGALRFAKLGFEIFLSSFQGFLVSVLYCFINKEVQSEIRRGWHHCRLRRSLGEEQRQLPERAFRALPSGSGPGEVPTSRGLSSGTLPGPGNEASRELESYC

Q: With “hGIP (from UniProt P09681 52-93) (peptide)” as the substance, how does the pEC50, cAMP accumulation (pEC50 (-log M)) read?
A: 11.8
